Legend:
[1] = biological target: RSV A + RSV B bivalent composition (RSV subtype A; RSV subtype B); test: AM14 Fab titration by SEC; Target cycle; 3 M 40°C
[2] = biological target: RSV A + RSV B bivalent composition (RSV subtype A; RSV subtype B); test: AM14 Fab titration by SEC; composition of Table 14; Freezing Ramp Aggressive cycle
[3] = biological target: RSV A + RSV B bivalent composition (RSV subtype A; RSV subtype B); test: AM14 Fab titration by SEC; Target cycle; 1 M 40°C
[4] = biological target: RSV A + RSV B bivalent composition (RSV subtype A; RSV subtype B); test: AM14 Fab titration by SEC; Low-Fast cycle; 3 M 25°C (second value)
[5] = biological target: RSV A + RSV B bivalent composition (RSV subtype A; RSV subtype B); test: AM14 Fab titration by SEC; Low-Fast cycle; T0
[6] = biological target: RSV A + RSV B bivalent composition (RSV subtype A; RSV subtype B); test: AM14 Fab titration by SEC; composition of Table 14; Cumulative Aggressive (High-Slow) cycle
[7] = biological target: RSV A + RSV B bivalent composition (RSV subtype A; RSV subtype B); test: AM14 Fab titration by SEC; High-Slow 1 cycle; 1 M 2-8°C
[8] = biological target: RSV A + RSV B bivalent composition (RSV subtype A; RSV subtype B); test: AM14 Fab titration by SEC; High-Slow 1 cycle; 3 M 25°C
[9] = biological target: RSV A + RSV B bivalent composition (RSV subtype A; RSV subtype B); test: AM14 Fab titration by SEC; High-Slow 1 cycle; 8 M 40°C
[10] = biological target: RSV A + RSV B bivalent composition (RSV subtype A; RSV subtype B); test: AM14 Fab titration by SEC; composition of Table 17; Pre-lyo Prep 2, T0
[11] = biological target: T1, RSV F protein of subtype A comprising a polypeptide of SEQ ID NO: 1 and a polypeptide of SEQ ID NO: 2 (RSV subtype A, UniProt P11209 137-513; P03420 26-109); test: AM14 ELISA; F8 (pH 7, 50 mM NaCl, 0% sucrose); 2 wk 5°C
T1 construct: Stabilized prefusion F trimer made of three F2-F1 heterodimers; Produced recombinantly in CHO cells; also called RSV A; RSVA
T1 chain 1: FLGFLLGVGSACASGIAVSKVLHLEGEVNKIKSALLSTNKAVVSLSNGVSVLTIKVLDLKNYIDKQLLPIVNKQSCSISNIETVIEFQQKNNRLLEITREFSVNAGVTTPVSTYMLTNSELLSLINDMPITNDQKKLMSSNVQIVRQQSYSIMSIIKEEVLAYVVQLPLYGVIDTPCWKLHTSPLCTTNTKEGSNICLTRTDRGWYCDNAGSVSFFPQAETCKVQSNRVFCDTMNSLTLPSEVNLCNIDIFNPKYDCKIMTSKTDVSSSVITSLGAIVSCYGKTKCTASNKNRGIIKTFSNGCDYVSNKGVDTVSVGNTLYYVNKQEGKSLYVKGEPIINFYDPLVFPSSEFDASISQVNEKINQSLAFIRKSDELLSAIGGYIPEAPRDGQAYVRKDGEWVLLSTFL
T1 chain 2: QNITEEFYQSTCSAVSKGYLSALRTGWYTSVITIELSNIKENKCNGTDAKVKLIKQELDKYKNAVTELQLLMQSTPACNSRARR

[12] = biological target: T1, RSV F protein of subtype A comprising a …; test: AM14 ELISA; F18 (pH 7, 50 mM NaCl, 3% sucrose + 3% mannitol); 1 wk 25°C
[13] = biological target: T1, RSV F protein of subtype A comprising a …; test: AM14 ELISA; F1 (pH 8, 100 mM NaCl, 0% sucrose); 2 wk 25°C
[14] = biological target: T1, RSV F protein of subtype A comprising a …; test: AM14 ELISA; F11 (pH 7, 50 mM NaCl, 9.0% sucrose); 2 wk 5°C
[15] = biological target: T1, RSV F protein of subtype A comprising a …; test: AM14 ELISA; F18 (pH 7, 50 mM NaCl, 3% sucrose + 3% mannitol); T0
[16] = biological target: T1, RSV F protein of subtype A comprising a …; test: AM14 ELISA; F10 (pH 7, 50 mM NaCl, 4.5% sucrose); 1 wk 25°C
[17] = biological target: T1, RSV F protein of subtype A comprising a …; test: AM14 ELISA; F7 (pH 6, 100 mM NaCl, 0% sucrose); 2 wk 25°C
[18] = biological target: T1, RSV F protein of subtype A comprising a …; test: AM14 ELISA; F7 (pH 6, 100 mM NaCl, 0% sucrose); 1 wk 25°C
[19] = biological target: T1, RSV F protein of subtype A comprising a …; test: AM14 ELISA; F8 (pH 7, 50 mM NaCl, 0% sucrose); 1 wk 25°C

Molecule: AM14 Fab
- Prefusion Content (%) [1]: 72%
- Prefusion Content (%) [2]: 62%
- Prefusion Content (%) [3]: 64%
- Prefusion Content (%) [4]: 68%
- Prefusion Content (%) [5]: 76%
- Prefusion Content (%) [6]: 64%
- Prefusion Content (%) [7]: 52%
- Prefusion Content (%) [8]: 53%
- Prefusion Content (%) [9]: 53%
- Prefusion Content (%) [10]: 81%

B1: AM14 (trimeric prefusion specific antibody of the AM14 ELISA) (antibody, V domains shown)
VH: EVQLVESGGGVVQPGRSLRLSCAASGFSFSHYAMHWVRQAPGKGLEWVAVISYDGENTYYADSVKGRFSISRDNSKNTVSLQMNSLRPEDTALYYCARDRIVDDYYYYGMDVWGQGATVTVSS
VL: DIQMTQSPSSLSASVGDRVTITCQASQDIKKYLNWYHQKPGKVPELLMHDASNLETGVPSRFSGRGSGTDFTLTISSLQPEDIGTYYCQQYDNLPPLTFGGGTKVEIKR
notes: Antibody as used in the AM14 ELISA, detected with an HRP-labeled secondary antibody
- AM14 prefusion content (%), relative to standard [11]: 101%
- AM14 prefusion content (%), relative to standard [12]: 83%
- AM14 prefusion content (%), relative to standard [13]: 93%
- AM14 prefusion content (%), relative to standard [14]: 90%
- AM14 prefusion content (%), relative to standard [15]: 91%
- AM14 prefusion content (%), relative to standard [16]: 82%
- AM14 prefusion content (%), relative to standard [17]: 55%
- AM14 prefusion content (%), relative to standard [18]: 75%
- AM14 prefusion content (%), relative to standard [19]: 86%
